# Experiments:
# Type in all cases: biochemical, Z. mays
# [1] = test system: 4-hydroxyphenylpyruvate dioxygenase (HPPD); assay: ON rate ratio: HPPD reaction rate with vs without inhibitor in the 70 to 90 second interval; details: Table 7; tembotrione; combinatorial variants
# Summary of the method: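 Time courses of HPPD reactions, 60 or 120 nM enzyme with 100 μM HPP substrate, run with and without 4 μM inhibitor (e.g. mesotrione, tembotrione). Value is the rate with inhibitor over rate without, taken over 70–90 s; higher ratio reflects slower kON.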
# [2] = test system: 4-hydroxyphenylpyruvate dioxygenase (HPPD); assay: OFF rate ratio: release of inhibitor from pre-formed enzyme-inhibitor complex; details: Table 7; tembotrione; combinatorial variants
# Summary of the method: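 HPPD (7.2 μM) pre-incubated 1 h at RT with inhibitor (8 μM), then diluted into 25 mM Hepes pH 7, 2 mM ascorbate, 10 μM FeSO4, 100 μM HPP, 50 nM HGD; A320 followed 12 min. Ratio = steady-state rate with inhibitor over initial rate of inhibitor-free enzyme.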
# [3] = test system: 4-hydroxyphenylpyruvate dioxygenase (HPPD); assay: Insensitivity parameter (ON × OFF) and trait fitness (ON × OFF × kcat/KM or × kcat); set-up: key to ON × OFF / Insensitivity, mesotrione, ON × OFF / Insensitivity, tembotrione, ON × OFF / Insensitivity, topramezone, ON × OFF / Insensitivity, sulcotrione, ON × OFF / Insensitivity, isoxaflutole (DKN), ON × OFF: insensitivity = ON rate ratio × OFF rate ratio (surrogate for KD)
# Summary of the method: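 Calculated, not measured directly: ON rate ratio × OFF rate ratio gives an insensitivity parameter serving as a KD surrogate.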
# [4] = test system: 4-hydroxyphenylpyruvate dioxygenase (HPPD); assay: Estimate of kcat from initial rate at saturating hydroxyphenylpyruvate without inhibitor (ON rate ratio assay)
# Summary of the method: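 Reactions used 60 or 120 nM HPPD and saturating 100 μM hydroxyphenylpyruvate without inhibitor. kcat was estimated from the initial rate at the known enzyme concentration.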
# [5] = Table 7, tembotrione, combinatorial variants
# [6] = Table 7, combinatorial variants
Molecule,ON rate ratio [1],OFF rate ratio [2],"ON × OFF ([3]; Megatable 3, shuffled variants)","ON × OFF × kcat ([3]; Megatable 3, shuffled variants)","ON × OFF [3, 5]","ON × OFF × kcat [3, 5]","kcat ([4]; Megatable 3, shuffled variants) [s⁻¹]","kcat [4, 6] [s⁻¹]"
"P056028-B-06 (protein, Zea mays variant form created by artificial means.) MGPTPTATAAGAAVAAASAAEQAAFRLVGHRNFVRFNPRSDRFQTLAFHHVELWCADAASAAGRFSFALGVPLAARSDLSTGNSAHASLLLRSGSLSLLFTAPYAHGADAATAALPSFSAAAARRFAADHGLAVRAVALRVADAEDAFRASVAAGARPAFGPVDLGRGFRLAEVELYGDVVLRYVSYPDGAAGEPFLPGFEGVASPGAADYGLSRFDHIVGNVPELAPAAAYMAGFTGFHEFAEFTTEDVGTTESGLNSMALANNSENVLLPLNEPVHGTKRRSQIQTFLDHHGGPGVQHIALASDDVLRTLREMRARSAMGGFEFLPPPLSDYYDGVRRCAGDVLTEAQINECQKLGVMVDRDDEGVLLQIFTKPVGDRPTFFLEIIQRIGCMEKDEKGQEYQKGGCGGFGKGNFGQLFKSIEDYEKSLEAKQAAAAATAQGS",0.713,0.353,0.252,5.03,0.252,5.03,0.333,0.333
"P056028-B-07 (protein, Zea mays variant form created by artificial means.) MGPTPTATAAGAAVAAASAAEQAAFRLVGHRNFVRFNPRSDRFQTLAFHHVELWCADAASAAGRFSFALGVPLAARSDLSTGNSAHASLLLRSGSLSLLFTAPYAHGADAATAALPSFSAAAARRFAADHGLAVRAVALRVADAEDAFRASVAAGARPAFGPVDLGRGFRLAEVELYGDVVLRYVSYPDGAAGEPFLPGFEGVASQGAADYGLSRFDHIVGNVPELAPAAAYMAGFTGFHEFAEFTTEDVGTTESGLNSMALANNSENVLLPLNEPVHGTKRRSQIQTFLDHHGGPGVQHIALASDDVLRTLREMRARSAMGGFEFLPPPLSDYYDGVRRCAGDVLTEAQINECQELGVMVDRDDEGVLLQIFTKPVGDRPTFFIELIQRIGCMEKDEKGQEYQKGGCGGFGKGNFGQLFKSIEDYEKSLEAKQAAAAATAQGS",0.788,0.389,0.307,2.83,0.307,2.83,0.153,0.153
"P056028-B-08 (protein, Zea mays variant form created by artificial means.) MGPTPTATAAGAAVAAASAAEQAAFRLVGHRNFVRFNPRSDRFQTLAFHHVELWCADAASAAGRFSFALGVPLAARSDLSTGNSAHASLLLRSGSLSLLFTAPYAHGADAATAALPSFSAAAARRFAADHGLAVRAVALRVADAEDAFRASVAAGARPAFGPVDLGRGFRLAEVELYGDVVLRYVSYPDGAAGEPFLPGFEGVASPGAADYGLSRFDHIVGNVPELAPAAAYMAGFTGFHEFAEFTTEDVGTTESGLNSMALANNSENVLLPLNEPVHGTKRRSQIQTFLDHHGGPGVQHIALASDDVLRTLREMRARSAMGGFEFLPPPLSDYYDGVRKCAGDVLTEAQINECQELGVMVDRDDEGVLLQIFTKPVGDRPTFFLEIIQRIGCMEKDEKGQEYQKGGCGGFGKGNFGQLFKSIEDYEKSLEAKQAAAAATAQGS",0.681,0.325,0.221,3.44,0.221,3.44,0.258,0.258

# Source: patent US11015206B2, “Compositions and methods comprising sequences having hydroxyphenylpyruvate dioxygenase (HPPD) activity” (PIONEER HI-BRED INTERNATIONAL, INC., priority 2014, dated 2021)
